4 substances from PMC11499148 can be followed below.

The target of this experiment is soluble human FcRn (human) (UniProt P55899). The experiment can be described thus: SPR; pH 6.0.
Chain of UniProt P55899 (P55899 24-297, chain 1 of 2): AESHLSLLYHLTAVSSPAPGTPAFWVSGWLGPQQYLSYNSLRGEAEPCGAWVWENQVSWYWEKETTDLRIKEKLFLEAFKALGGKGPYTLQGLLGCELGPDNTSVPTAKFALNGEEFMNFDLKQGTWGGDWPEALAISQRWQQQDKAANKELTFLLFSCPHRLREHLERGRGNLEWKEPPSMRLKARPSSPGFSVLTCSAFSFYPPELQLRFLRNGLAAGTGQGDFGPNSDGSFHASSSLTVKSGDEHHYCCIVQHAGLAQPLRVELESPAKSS
Chain of UniProt P55899 (P61769 21-119, chain 2 of 2, further chain): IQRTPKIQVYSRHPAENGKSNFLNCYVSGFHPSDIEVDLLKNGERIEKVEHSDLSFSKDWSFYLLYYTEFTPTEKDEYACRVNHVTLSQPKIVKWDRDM
The Kd is a measure of binding affinity in units of concentration. Lower therefore signals tighter binding. In the case of hAK23-IgG1-DHS, the Kd is 137 nM.

Consider hAK23-IgG4-WT, for which the Kd was 215 nM.

For hAK23-IgG1-WT, the Kd was determined as 334 nM.

hAK23-IgG4-DHS displayed a Kd of 64 nM.
